Assay results published in patent publication US20160333101A1 (GENOR BIOPHARMA, published 2016).

T1: recombinant human RANKL (human, UniProt O14788 136-317)
T1 sequence: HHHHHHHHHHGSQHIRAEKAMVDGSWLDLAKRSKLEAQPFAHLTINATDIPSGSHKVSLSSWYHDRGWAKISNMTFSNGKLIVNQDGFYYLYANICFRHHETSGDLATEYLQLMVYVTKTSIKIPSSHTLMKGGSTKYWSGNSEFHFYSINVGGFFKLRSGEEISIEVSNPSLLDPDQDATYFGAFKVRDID


target: T1, recombinant human RANKL; assay: cell-based or functional assay

Binder	IC50 for inhibiting hRANKL induced RAW264.7 cell differentiation [µg/mL]
G8 (antibody, human IgG2, kappa, V domains shown) VH: QVQLVQSGAELVQPGASVKLSCKASGYTFTTYWLQWVRQTPGQGLEWMGAIYPGPGNTKYTQKFKDRVTITADTSTSTAYMQLNSLRSEDSAVYYCARRGSRRGIAYWGQGTLVTVSA VL: NIVLTQSPASLSVSLGQRATISCRASESVDSYGRSFMHWYQQRPGQAPKLLIYLASNLESGVPARFSGSGSRTDFTLTISSVEAEDEATYYCQQDNEDPYTFGGGTKLEIKG	0.329
G15 (antibody, human IgG2, kappa, V domains shown) VH: QVQLVQSGAEVKKPGASVKVSCKASGYTFTTYWLQWVRQAPGQGLEWMGAIYPGPGNTKYTQKFKDRVTITADESTSTAYMELSSLRSEDTAVYYCARRGSRRGIAYWGQGTLVTVSA VL: NIVLTQSPASLSVSLGQRATISCRASESVDSYGRSFMHWYQQRPGQAPRLLIYLASNLESGVPARFSGSGSRTDFTLTISSVEAEDEATYYCQQDNEDPYTFGGGTKLEIKG	0.257

target: T1, recombinant human RANKL; assay: cell-based or functional assay; remark: another data set of the same source

Binder	EC50 value (ng/ml), inhibiting the cellular differentiation of RAW264.7 induced by human RANKL [ng/mL]
114-5.7.14 (antibody, V domains shown) VH: EVQLQQSGAELVKPGASVKLSCTASGFKIKDTYMHWVRQRPEQGLEWIGRIDSANGNIKYDPKFQGKATITADTSSKTAYLHLSSLTFEDTAVYYCSRPKSNYDFWLPYWGQGTLVTVSA VL: DIQMTQTTSSLSASLGDRVTISCSASQGISNYLNWYQQKPDGTVKLLIYYTSSLHSGVPSRFSGSGSGTDYSLTISNLEPEDIATYYCQQYSKLPLTFGAGTKLELK	315
114-7.38.48 (antibody, V domains shown) VH: DVQLQESGPDLVKPSQSLSLTCTVTGYSITSAYSWHWIRQFPGNKLEWMGYIHFSGVTNYNPSLKSRISITRDASKNQFFLQLSSVTTEDTATYYCATRRETGFTYWGQGTLVTVSA VL: DIVLTQSPATLSVTPGDSVSLSCRASQSISKNLHWYQQKSHESPRLLIKYASQSISGIPSRFSGSGSGTDFTLSINSVETEDFGIYFCQQINSWPLTFGAGTKLELK	585
114-7.19.12 (antibody, V domains shown) VH: QVQLQQSGAELASPGASVKLSCKASGYTFTTYWLQWVKQRPGQGLEWIGAIYPGPGNTKYTQKFKDKATLTADKSASTAYMQLNSLTSEDSAVYYCARRGSRRGIAYWGQGTLVTVSA VL: NIVLTQSPASLAVSLGQRATISCRASESVDSYGRSFMHWYQQRPGQPPTLLIYLASNLESGVPVRFSGSGSRTDFTLTIDPVEADDAATYYCQQDNEDPYTFGGGTKLEIK	267
114-7.37.26 (antibody, V domains shown) VH: QVQLQQSGAELASPGASVKLSCKTSGYTFTTYWLQWVKQRPGQGLEWIGAIYPGPGNTKYTQKFKDKATLTADKSASTAYMQLSSLTSEDSAVYYCARRGSRRGIAYWGQGTLVTVSA VL: NIVLTQSPASLAVSLGQRATISCRASESVDSYGRSFMHWYQQRPGQPPTLLIYLASNLESGVPARFSGSGSRTDFTLTIDPVEADDAATYYCQQDNEDPYTFGGGTKLEIK	470
114-2.222 (antibody, V domains shown) VH: EVQLQQSGAELVKPGASVKLSCTTSGFNIKATYIHWVQQRPEQGLEWIGRIDPANGNTKYDSKFQGKATITADTSSNTAYLQLSSLTSEDTAVYFCARSLHYYVFFDYWGQGTTLTVSS VL: DIQMTQTTSSLSASLGDRVTISCSASQGISNYLNWYQQKPDGTVKLLIYSTSSLHSGVPSRFSGSGSGTDYSLTISSLEPEDIATYYCQQYSKLPLTFGAGTKLELKR	311
114-5.9.4 (antibody, V domains shown) VH: EVQLQQSGAELVKPGASVKLSCTASGFNLKGTYIHWVKQRPGQGLEWIGRIDPANANTKYDPKFQGKATIRTDTSSNTAYLQLSSLTSEDTAVYFCSSPSGHYDVWFAYWGQGTLVTVSP VL: DIQMTQPTSSLSASLGDTVTISCSASQDISNYLNWYQQKPDGTLKLLIYYTSSLHSGVPSRFSGSGSGTDYSLTISNLEPEDIATYYCQQFSKLPLTFGAGTKLELKR	340
114-2.402 (antibody, V domains shown) VH: EVQLQQSGTELVKPGASVKLSCTLFGFNIKATYMHWVRQRPEQGLEWIGRIDPPNGNTKYDPKFQDKATIKVDTSSNTAYLQLSSLTSEDTAVYYCAREFNRYDVWLAYWGQGTLVTVSA VL: DIQMTQTTSSLSASLGDRVTISCSASQGVSNYLNWYQQKPDGTVKLLIYSTSSLHSGVPSRFSGSGSGTDYSLTISNLEPEDVATYYCQQYSKLPFTFGSGTKLEIKR	396
114-6.6.29 (antibody, V domains shown) VH: DVKLVESGGGLVKPGGSLKLSCAASGFTFSSYTMSWVRQTPEKRLEWVATISSGGSYTYYPDSVKGRFTISRDNAKNTLYLQMSSLKSEDTAMYYCTRDWDYYGTTYVGGYAMDYWGQGTSVTVSS VL: DVLMTQTPLSLPVSLGDQASISCRSSQSIVHSNGNTYLEWYLQKPGQSPKLLIYKVSNRFSGVPDRFSGSGSGTDFTLKISRVEAEDLGVYYCFQGSHVPWTFGGGTKLEIK	799

target: T1, recombinant human RANKL; assay: cell-based or functional assay; remark: another data set of the same source

Binder	IC50 (ng/ml) in RAW264.7 cells, osteoclast differentiation induced by RANKL [ng/mL]
G12 (antibody, human IgG2, kappa, V domains shown) VH: QVQLVQSGAELKKPGASVKLSCKASGYTFTTYWLQWVRQAPGQGLEWMGAIYPGPGNTKYTQKFKDRFTITADTSKSTAYMQLNSLKSEDSAVYYCARRGSRRGIAYWGQGTLVTVSA VL: NIVLTQSPASLSVSLGQRATISCRASESVDSYGRSFMHWYQQRPGQAPKLLIYLASNLESGVPARFSGSGSRTDFTLTISSVEAEDEATYYCQQDNEDPYTFGGGTKLEIKG	~1060
G8 (antibody, human IgG2, kappa, V domains shown) VH: QVQLVQSGAELVQPGASVKLSCKASGYTFTTYWLQWVRQTPGQGLEWMGAIYPGPGNTKYTQKFKDRVTITADTSTSTAYMQLNSLRSEDSAVYYCARRGSRRGIAYWGQGTLVTVSA VL: NIVLTQSPASLSVSLGQRATISCRASESVDSYGRSFMHWYQQRPGQAPKLLIYLASNLESGVPARFSGSGSRTDFTLTISSVEAEDEATYYCQQDNEDPYTFGGGTKLEIKG	~573
G10 (antibody, human IgG2, kappa, V domains shown) VH: QVQLVQSGAELKKPGASVKLSCKASGYTFTTYWLQWVRQAPGQGLEWMGAIYPGPGNTKYTQKFKDRFTITADTSKSTAYMQLNSLKSEDSAVYYCARRGSRRGIAYWGQGTLVTVSA VL: NIVLTQSPASLSVSLGQRATISCRASESVDSYGRSFMHWYQQRPGQAPRLLIYLASNLESGVPARFSGSGSRTDFTLTISSVEAEDEATYYCQQDNEDPYTFGGGTKLEIKG	695
G4 (antibody, human IgG2, kappa, V domains shown) VH: QVQLVQSGAELKKPGASVKLSCKASGYTFTTYWLQWVRQAPGQGLEWMGAIYPGPGNTKYTQKFKDRFTITADKSKSTAYMQLNSLKSEDSAVYYCARRGSRRGIAYWGQGTLVTVSA VL: NIVLTQSPASLSVSLGQRATISCRASESVDSYGRSFMHWYQQRPGQAPKLLIYLASNLESGVPARFSGSGSRTDFTLTISSVEAEDEATYYCQQDNEDPYTFGGGTKLEIKG	~1080

target: T1, recombinant human RANKL; assay: ELISA, scFv supernatant on coated hRANKL, anti-c-myc-HRP
Procedure: For VH, VL libraries, 5×96 clones selected randomly from SOBAG cloning plates obtained in the third round and the fourth round are vaccinated on 96-deep-well plates respectively, 400 μl 2×YT-AG medium is contained in each well, the bacterial liquid is cultivated with shaking, at 30° C., 200 rpm overnight. The next day, the bacterial liquid on the deep-well plate is transferred by 1:50 to a new 96-deep-well plate containing 400 μl 2×YT-AG fresh medium. The bacterial liquid is cultivated with shaking at 37° C., 200 rpm until OD600 is about 0.8 (for about 3 hours). The bacterial is collected through 1500 g centrifugation for 10 minutes, the supernatant is removed, and the bacterial is resuspended with 400 μl of sterile fresh 2×YT-AI (I refers to IPTG, with a final concentration of […]) culture medium, the suspension is cultivated with shaking at 30° C., 200 rpm overnight (that is, the expression of scFv is induced overnight). The expressed inductively scFv supernatant on the deep-well plate is centrifuged at 3000 g for 20 min, 300 μl supernatant is transferred to a clean 96-well cell plate for backup.
The plates are washed three times with PBST (containing 0.05% Tween 20). The plates are closed with blocking solution (PBS solution containing 2% (WN) of BSA) for 1˜1.5 hours at room temperature. […] The closed microtiter plate is incubated for 2 hours at room temperature, washed three times with PBST.

Binder	binding result
pFL249-L10u (scFv, scFv in IPTG-induced E. coli supernatant, screened by ELISA; also called L10u scFv clone of the VL library; not shown: c-myc tag and his tag of vector pFL249) scFv: QVQLQQSGAELASPGASVKLSCKASGYTFTTYWLQWVKQRPGQGLEWIGAIYPGPGNTKYTQKFKDKATLTADKSASTAYMQLNSLTSEDSAVYYCARRGSRRGIAYWGQGTLVTVSAASSGGGGSGGGGSGGGGSSNIVLTQSPASLSVSLGQRATISCRASESVDSYGRSFMHWYQQRPGQAPKLLIYLASNLESGVPARFSGSGSRTDFTLTISSVEAEDEATYYCQQDNEDPYTFGGGTKLEIK	binds
pFL249-L37 (scFv, scFv in IPTG-induced E. coli supernatant, screened by ELISA; also called L37 scFv clone of the VL library; not shown: c-myc tag and his tag of vector pFL249) scFv: QVQLQQSGAELASPGASVKLSCKASGYTFTTYWLQWVKQRPGQGLEWIGAIYPGPGNTKYTQKFKDKATLTADKSASTAYMQLNSLTSEDSAVYYCARRGSRRGIAYWGQGTLVTVSAASSGGGGSGGGGSGGGGSSNIVLTQSPASLSVSLGQRATISCRASESVDSYGRSFMHWYQQKPGQAPKLLIYLASNLESGVPSRFSGSGSRTDFTLTISAVEAEDAATYYCQQDNEDPYTFGGGTKLEIK	binds
pFL249-L10 (scFv, scFv in IPTG-induced E. coli supernatant, screened by ELISA; also called L10 scFv clone of the VL library; not shown: c-myc tag and his tag of vector pFL249) scFv: QVQLQQSGAELASPGASVKLSCKASGYTFTTYWLQWVKQRPGQGLEWIGAIYPGPGNTKYTQKFKDKATLTADKSASTAYMQLNSLTSEDSAVYYCARRGSRRGIAYWGQGTLVTVSAASSGGGGSGGGGSGGGGSSNIVLTQSPASLSVSLGQRATISCRASESVDSYGRSFMHWYQQRPGQAPRLLIYLASNLESGVPARFSGSGSRTDFTLTISSVEAEDEATYYCQQDNEDPYTFGGGTKLEIK	binds
pFL249-L37u (scFv, scFv in IPTG-induced E. coli supernatant, screened by ELISA; also called L37u scFv clone of the VL library; not shown: c-myc tag and his tag of vector pFL249) scFv: QVQLQQSGAELASPGASVKLSCKASGYTFTTYWLQWVKQRPGQGLEWIGAIYPGPGNTKYTQKFKDKATLTADKSASTAYMQLNSLTSEDSAVYYCARRGSRRGIAYWGQGTLVTVSAASSGGGGSGGGGSGGGGSSNIVLTQSPASLSVSLGQRATISCRASESVDSYGRSFMHWYQQKPGQAPKLLIYLASNLESGVPSRFSGSGSRTDFTLTISRVEAEDAATYYCQQDNEDPYTFGGGTKLEIK	binds
